From IntAct's records for PubMed 25117763

B1: Axin interactor, dorsalization-associated protein (Mus musculus), Q8C4Q6-1 (parent)
chain: MSEVTRSLLQRWGASLRRGADFDSWGQLVEAIDEYQILARHLQKEAQAQHNNSEFTEEQKKTIGKIATCLELRSAALQSTQSQEEFKLEDLKKLEPILKNILTYNKEFPFDVQPIPLRRILAPGEEENLEFEEDEEGGAGAGPPDSFSARVPGTLLPRLPSEPGMTLLTIRIEKIGLKDAGQCIDPYITVSVKDLNGIDLTPVQDTPVASRKEDTYVHFNVDIELQKHVERLTKGAAIFFEFKHYKPKKRFTSTKCFAFMEMDEIKPGPIVIELYKKPTDFKRKKLQLLTKKPLYLHLHQSLHKE

Variants of: B1
Settings: with Axin1, O35625-2
Axin1, O35625-2, sequence (O35625 other isoform, or with tags, fused parts or gaps): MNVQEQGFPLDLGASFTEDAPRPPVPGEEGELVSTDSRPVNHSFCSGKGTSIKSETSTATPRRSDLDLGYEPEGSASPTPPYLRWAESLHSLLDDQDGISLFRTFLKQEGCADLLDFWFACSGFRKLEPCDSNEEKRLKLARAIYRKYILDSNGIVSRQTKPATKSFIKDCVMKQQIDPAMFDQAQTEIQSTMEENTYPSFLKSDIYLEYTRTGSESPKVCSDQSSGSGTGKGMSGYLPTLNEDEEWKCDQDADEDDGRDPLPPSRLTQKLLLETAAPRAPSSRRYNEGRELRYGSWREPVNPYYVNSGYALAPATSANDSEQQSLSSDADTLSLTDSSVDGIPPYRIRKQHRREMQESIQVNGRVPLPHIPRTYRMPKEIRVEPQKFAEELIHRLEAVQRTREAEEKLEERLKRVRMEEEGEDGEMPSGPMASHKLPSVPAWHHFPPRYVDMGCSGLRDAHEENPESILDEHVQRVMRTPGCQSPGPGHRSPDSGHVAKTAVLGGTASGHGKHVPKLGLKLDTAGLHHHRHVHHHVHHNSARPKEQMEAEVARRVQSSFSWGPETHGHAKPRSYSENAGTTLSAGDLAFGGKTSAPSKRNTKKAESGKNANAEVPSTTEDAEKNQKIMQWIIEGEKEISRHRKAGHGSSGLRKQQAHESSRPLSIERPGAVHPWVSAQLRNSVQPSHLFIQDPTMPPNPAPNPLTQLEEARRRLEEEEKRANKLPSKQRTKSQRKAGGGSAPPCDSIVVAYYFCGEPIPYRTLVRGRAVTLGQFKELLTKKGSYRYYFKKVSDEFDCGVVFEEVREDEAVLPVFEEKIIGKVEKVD

| Variant | effect of a mutation on the interaction |
| --- | --- |
| K282A;R283A;K284A;K285A | disrupting interaction |
